Source: paper PMC5779224 (2017)

T1: AnkB 28–847 (MBD + partial AI-c) (human, UniProt Q01484-2 28-847)
T1 chain: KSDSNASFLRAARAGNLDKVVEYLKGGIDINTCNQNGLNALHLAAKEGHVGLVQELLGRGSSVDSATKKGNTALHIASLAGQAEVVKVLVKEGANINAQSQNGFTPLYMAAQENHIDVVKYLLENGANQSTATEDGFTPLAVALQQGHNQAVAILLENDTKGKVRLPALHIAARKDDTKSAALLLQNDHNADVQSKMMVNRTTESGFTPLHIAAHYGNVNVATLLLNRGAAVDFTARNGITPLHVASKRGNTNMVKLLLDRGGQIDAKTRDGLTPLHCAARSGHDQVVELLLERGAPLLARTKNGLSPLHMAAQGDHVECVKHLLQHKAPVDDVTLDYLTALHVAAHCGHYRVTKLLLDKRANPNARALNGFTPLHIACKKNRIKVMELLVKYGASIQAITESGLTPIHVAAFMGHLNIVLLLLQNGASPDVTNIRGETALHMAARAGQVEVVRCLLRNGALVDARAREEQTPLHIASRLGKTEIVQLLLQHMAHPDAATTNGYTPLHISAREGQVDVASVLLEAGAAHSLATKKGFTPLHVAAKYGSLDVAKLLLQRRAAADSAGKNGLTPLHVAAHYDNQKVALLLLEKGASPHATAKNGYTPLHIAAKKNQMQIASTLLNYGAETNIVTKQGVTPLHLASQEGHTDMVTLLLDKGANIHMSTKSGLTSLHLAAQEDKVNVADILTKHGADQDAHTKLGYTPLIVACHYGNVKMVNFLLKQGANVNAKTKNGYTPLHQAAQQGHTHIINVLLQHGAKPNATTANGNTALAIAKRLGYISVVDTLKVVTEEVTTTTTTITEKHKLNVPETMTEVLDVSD

T2: AnkG 38–855 (AnkG MBD-AI-c protein; MBD + partial AI-c) (rat, UniProt O70511-1 38-855)
T2 chain: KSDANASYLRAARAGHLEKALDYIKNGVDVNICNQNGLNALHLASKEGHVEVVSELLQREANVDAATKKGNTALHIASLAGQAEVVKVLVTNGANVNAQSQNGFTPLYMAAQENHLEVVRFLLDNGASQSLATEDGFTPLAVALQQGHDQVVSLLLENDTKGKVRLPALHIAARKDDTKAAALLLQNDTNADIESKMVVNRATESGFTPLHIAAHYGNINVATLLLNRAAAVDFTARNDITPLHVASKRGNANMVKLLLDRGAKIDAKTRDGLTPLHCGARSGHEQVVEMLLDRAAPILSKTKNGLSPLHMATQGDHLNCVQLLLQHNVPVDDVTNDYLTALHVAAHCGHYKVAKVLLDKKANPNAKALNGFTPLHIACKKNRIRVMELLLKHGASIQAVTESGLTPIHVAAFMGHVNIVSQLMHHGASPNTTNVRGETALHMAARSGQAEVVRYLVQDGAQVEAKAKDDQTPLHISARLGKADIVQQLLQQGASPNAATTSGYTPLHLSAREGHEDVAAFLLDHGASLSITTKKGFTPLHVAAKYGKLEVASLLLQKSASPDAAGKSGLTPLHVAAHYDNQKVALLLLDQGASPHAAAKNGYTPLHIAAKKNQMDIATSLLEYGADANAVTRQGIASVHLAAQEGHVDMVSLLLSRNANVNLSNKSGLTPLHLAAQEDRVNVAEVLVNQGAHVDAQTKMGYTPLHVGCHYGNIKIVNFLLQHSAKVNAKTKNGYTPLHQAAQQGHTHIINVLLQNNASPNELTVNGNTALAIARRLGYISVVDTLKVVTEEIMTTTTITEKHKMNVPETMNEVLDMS

T3: AnkB_MBD (AnkB ANK repeats only, aa 28–827) (human, UniProt Q01484-2 28-827)
T3 chain: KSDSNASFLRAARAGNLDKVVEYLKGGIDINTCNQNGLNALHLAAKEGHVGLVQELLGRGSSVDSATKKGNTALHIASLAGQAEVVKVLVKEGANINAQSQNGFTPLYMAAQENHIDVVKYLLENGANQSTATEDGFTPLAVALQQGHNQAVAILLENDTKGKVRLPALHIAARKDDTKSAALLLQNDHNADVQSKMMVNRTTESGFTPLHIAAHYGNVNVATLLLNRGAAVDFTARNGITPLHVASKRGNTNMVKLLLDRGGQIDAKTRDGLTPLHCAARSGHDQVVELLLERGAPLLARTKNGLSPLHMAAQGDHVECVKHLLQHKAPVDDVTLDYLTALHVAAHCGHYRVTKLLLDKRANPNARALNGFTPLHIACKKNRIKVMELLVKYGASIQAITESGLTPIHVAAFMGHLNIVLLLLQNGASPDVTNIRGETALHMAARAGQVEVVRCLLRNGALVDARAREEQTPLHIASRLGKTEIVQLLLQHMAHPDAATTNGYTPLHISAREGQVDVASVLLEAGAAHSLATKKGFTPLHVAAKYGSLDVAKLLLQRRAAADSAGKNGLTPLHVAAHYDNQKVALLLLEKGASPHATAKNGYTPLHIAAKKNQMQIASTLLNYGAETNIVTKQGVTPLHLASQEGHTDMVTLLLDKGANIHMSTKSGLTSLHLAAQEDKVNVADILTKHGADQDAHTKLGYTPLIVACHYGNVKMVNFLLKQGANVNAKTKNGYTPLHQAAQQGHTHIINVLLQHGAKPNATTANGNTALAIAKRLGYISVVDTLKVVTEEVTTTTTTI

T4: AnkB 28–965 (MBD + AI-c + AI-b) (human, UniProt Q01484-2 28-965)
T4 chain: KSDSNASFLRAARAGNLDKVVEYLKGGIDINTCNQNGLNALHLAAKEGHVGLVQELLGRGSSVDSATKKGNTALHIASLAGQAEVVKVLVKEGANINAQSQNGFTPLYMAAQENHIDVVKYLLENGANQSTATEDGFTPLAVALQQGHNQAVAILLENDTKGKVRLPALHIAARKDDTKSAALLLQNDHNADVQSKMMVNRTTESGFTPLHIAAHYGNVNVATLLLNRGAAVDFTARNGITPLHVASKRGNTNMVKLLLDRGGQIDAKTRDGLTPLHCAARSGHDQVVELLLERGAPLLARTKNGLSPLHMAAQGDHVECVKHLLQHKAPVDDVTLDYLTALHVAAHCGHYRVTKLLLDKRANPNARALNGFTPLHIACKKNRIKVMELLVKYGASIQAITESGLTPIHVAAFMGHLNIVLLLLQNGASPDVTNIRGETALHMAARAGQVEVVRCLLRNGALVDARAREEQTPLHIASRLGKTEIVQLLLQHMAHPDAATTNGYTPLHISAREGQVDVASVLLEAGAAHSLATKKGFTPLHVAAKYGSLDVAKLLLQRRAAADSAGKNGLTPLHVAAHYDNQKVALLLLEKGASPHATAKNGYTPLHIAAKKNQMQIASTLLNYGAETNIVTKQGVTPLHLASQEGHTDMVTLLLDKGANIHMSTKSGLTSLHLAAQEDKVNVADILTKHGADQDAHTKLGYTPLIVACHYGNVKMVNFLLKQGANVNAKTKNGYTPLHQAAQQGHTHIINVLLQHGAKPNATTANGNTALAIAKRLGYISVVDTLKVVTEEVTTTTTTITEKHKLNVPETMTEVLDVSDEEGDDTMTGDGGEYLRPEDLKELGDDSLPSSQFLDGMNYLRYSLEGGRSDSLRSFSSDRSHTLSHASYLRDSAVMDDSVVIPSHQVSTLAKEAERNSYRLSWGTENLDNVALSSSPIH

T5: AnkG 38–903 (MBD + AI-c + AI-b) (rat, UniProt O70511-1 38-903)
T5 chain: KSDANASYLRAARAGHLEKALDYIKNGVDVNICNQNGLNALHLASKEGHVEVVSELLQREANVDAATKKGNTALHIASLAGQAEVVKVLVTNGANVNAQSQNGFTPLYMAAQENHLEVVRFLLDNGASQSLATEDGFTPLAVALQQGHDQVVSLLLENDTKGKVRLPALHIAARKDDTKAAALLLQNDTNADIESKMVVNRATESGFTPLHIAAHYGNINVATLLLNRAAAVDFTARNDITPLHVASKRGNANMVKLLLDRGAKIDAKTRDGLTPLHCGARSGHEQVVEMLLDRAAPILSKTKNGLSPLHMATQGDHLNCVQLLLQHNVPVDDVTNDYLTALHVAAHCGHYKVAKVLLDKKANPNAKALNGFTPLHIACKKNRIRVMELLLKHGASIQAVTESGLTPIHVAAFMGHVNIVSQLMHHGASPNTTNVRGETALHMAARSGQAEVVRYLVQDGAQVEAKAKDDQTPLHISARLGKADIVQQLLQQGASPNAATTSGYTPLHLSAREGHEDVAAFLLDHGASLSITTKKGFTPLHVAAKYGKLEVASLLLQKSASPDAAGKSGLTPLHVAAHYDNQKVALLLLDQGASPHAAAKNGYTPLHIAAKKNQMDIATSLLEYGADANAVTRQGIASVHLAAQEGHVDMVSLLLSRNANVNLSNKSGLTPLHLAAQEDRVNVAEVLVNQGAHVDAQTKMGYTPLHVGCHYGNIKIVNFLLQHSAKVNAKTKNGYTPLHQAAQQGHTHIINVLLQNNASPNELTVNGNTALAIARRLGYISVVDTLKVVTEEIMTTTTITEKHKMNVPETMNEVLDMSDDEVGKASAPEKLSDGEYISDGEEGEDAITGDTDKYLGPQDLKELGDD


Assays:
[1] = molecular target: T1, AnkB 28–847 (MBD + partial AI-c); assay: ITC
[2] = molecular target: T2, AnkG 38–855 (AnkG MBD-AI-c protein; MBD …); assay: ITC
[3] = molecular target: T3, AnkB_MBD (AnkB ANK repeats only, aa …); assay: ITC
[4] = molecular target: T1, AnkB 28–847 (MBD + partial AI-c); assay: ITC; AnkB 874-965
[5] = molecular target: T4, AnkB 28–965 (MBD + AI-c + AI-b); assay: ITC
[6] = molecular target: T5, AnkG 38–903 (MBD + AI-c + AI-b); assay: ITC

| Binder | Kd [1] [µM] | Kd [2] [µM] | Kd [3] [µM] | other results |
| --- | --- | --- | --- | --- |
| EDLKELGDDSLPSSQFLDGMNALRYSLEGGRS (domain or fragment) [AnkB_AI-b Tyr886Ala] | 16 |  |  |  |
| SLPSSQFLDGMNYLRYSLEGGRS [AnkB 874-896] | 13 |  |  |  |
| TEKHKLKVPETMTEVLDVSDEEGDD (domain or fragment) [AnkB_AI-c Asn834Lys] |  |  | 2.7 |  |
| SLPSSQFLDGMNYLRYSLEGGRS (domain or fragment) [AnkB AI-b fragment with residues 865 to 873 deleted] |  |  |  | Kd [4]: 17 µM |
| AnkB 828-896 (protein) TEKHKLNVPETMTEVLDVSDEEGDDTMTGDGGEYLRPEDLKELGDDSLPSSQFLDGMNYLRYSLEGGRS | 2.7 |  |  |  |
| TEKHKLNVPETMTEVQDVSDEEGDD (domain or fragment) [AnkB_AI-c Leu843Gln] |  |  | 3.9 |  |

More lines, main results first:

| Kd [1] [µM] | Kd [2] [µM] | Kd [3] [µM] | Binder | other results |
| --- | --- | --- | --- | --- |
|  | 3.5 |  | SDGEEGEDAITGDTDKYLGPQDLKELGDD (domain or fragment) [AnkG_AI-b (aa 875–903)] |  |
|  |  | 4.4 | TEKHKLNVPETQTEVLDVSDEEGDD (domain or fragment) [AnkB_AI-c Met839Gln] |  |
|  | 1.1 |  | KASAPEKLSDGEYISDGEEGEDAITGDTDKYLGPQDLKELGDD [AnkG 861-903] |  |
|  | 0.25 |  | Nav1.2 (aa 1035–1129) (domain or fragment) KALDEIKPLEDLNNKKDSCISNHTTIEIGKDLNYLKDGNGTTSGIGSSVEKYVVDESDYMSFINNPSLTVTVPIAVGESDFENLNTEEFSSESDM | Kd [5]: 5.8 µM; Kd [6]: 1.5 µM |
